Data taken from patent US6511816B1, “DNA gyrase-inhibiting proteins” (priority 1996, dated 2003).

Columns and labels:
[1] = biological target: Escherichia coli DNA gyrase (subunit A and subunit B) (Escherichia coli) (UniProt P0AES4); experiment: cell-based or functional assay
E. coli GI724 strain = experiment: Growth of antisense RNA-expressing strain with tryptophan induction; assay type: cell-based, Escherichia coli; conditions: for turbidity OD600 / number of living cells: tryptophan added
Description: An antisense expression vector was prepared by inserting a fragment containing the translation region of dgi gene (a fragment corresponding to the 255th-728th bases of Sequence ID NO:6) into the downstream of tryptophan (trp) promoter of vector plasmid pLEX (available from Invitrogen Co.).
The vector was introduced into E. coli GI724 strain. The antisense RNA-expressing strain thus obtained was cultured under the condition of with or without adding tryptophan, and the change with the lapse of time in the number of living cells and turbidity (OD600) was measured. When expression induction by adding tryptophan was not carried out, the number of living cells and turbidity after 24 hours were increased up to 1×10^9 cfu/ml and 1.0, respectively. […] It has been reported that such abnormality in morphology was also observed when E. coli was treated with a new quinolone gyrase inhibitor (Takeshi Nishino et al., Chemotherapy, vol. 41(s-5), pp. 50-66, 1993). From the above result, it is considered that in E. coli wherein expression of dgi antisense RNA is induced, expression of dgi gene is repressed and the normal growth of bacteria is inhibited. In other words, a medical agent which inhibits the expression of dgi gene is useful as an antimicrobial agent.

[2] = biological target: Escherichia coli DNA gyrase (subunit A and subunit B) (Escherichia coli, UniProt P0AES4+P0AES6)
Description: Using the purified DGI obtained in Example 4 above, DGI activity, i.e. the inhibiting activity against DNA gyrase activity (supercoiling activity), was measured. Each 5 μl of DNA gyrase subunit A (1U) and subunit B (1U) were each added to a reaction mixture for activity measurement (20 mM Tris-HCl (pH7.5), 20 mM KCl, 4 mM MgCl2, 4 mM spermidine, 1.5 mM ATP, 1 mM DTT, 30 μg/ml t-RNA, 15 μg/ml BSA and 0.1 μg relaxed pBR322 DNA), and DGI (protein concentration 25, 12.5, 6.25, 3.13, 1.56, 0.78 or 0.39 μg/ml) was added thereto for the reaction for 1 hour at 37° C. After stopping the reaction by addition of 3 μl of proteinase K (1 mg/ml) while keeping the temperature at 37° C. for 30 minutes, the reaction mixture was subjected to electrophoresis with 0.8% agarose gel, dyed with a 0.5 μg/ml solution of ethidium bromide and photographed under radiation of the ultraviolet rays. The amount of super-coiled DNA was measured with a densitometer (Shimadzu-wavelength flying spot scanner CS-9000, available from Shimadzu Seisakusho Co.). The presence or absence of DNA gyrase-inhibiting activity was assayed by comparing the supercoiled DNA amounts obtained when DGI protein was added, with those obtained when no DGI protein was added.
0.5 μg of pBR322 DNA (the supercoiled type, available from Takara Shuzo Co.) and 1 μl of topoisomerase I (available from Takara Shuzo Co.)(6 U/μl) were added to 20 μl of a reaction liquid (35 mM Tris-HCl (pH 8.0), 72 mM KCl, 5 mM MgCl2, 5 mM DTT, 5 mM spermidine and 0.01% bovine serum albumin) and reacted for 2 hours at 37° C. to prepare relaxed pBR322 DNA. […] As for the enzyme activity, the enzyme amount necessary to convert 50% of the amount of the relaxed plasmid DNA into the supercoiled DNA was expressed as one unit (U).

[3] = tested on: E. coli GI724 (pCA17) strain; experiment: Microscopic observation of strains expressing a large amount of DGI; assay type: cell-based, Escherichia coli; conditions: tryptophan-induced expression from pCA17

Chain of Escherichia coli DNA gyrase (subunit A and subunit B) (P0AES4 whole entry, one chain of several): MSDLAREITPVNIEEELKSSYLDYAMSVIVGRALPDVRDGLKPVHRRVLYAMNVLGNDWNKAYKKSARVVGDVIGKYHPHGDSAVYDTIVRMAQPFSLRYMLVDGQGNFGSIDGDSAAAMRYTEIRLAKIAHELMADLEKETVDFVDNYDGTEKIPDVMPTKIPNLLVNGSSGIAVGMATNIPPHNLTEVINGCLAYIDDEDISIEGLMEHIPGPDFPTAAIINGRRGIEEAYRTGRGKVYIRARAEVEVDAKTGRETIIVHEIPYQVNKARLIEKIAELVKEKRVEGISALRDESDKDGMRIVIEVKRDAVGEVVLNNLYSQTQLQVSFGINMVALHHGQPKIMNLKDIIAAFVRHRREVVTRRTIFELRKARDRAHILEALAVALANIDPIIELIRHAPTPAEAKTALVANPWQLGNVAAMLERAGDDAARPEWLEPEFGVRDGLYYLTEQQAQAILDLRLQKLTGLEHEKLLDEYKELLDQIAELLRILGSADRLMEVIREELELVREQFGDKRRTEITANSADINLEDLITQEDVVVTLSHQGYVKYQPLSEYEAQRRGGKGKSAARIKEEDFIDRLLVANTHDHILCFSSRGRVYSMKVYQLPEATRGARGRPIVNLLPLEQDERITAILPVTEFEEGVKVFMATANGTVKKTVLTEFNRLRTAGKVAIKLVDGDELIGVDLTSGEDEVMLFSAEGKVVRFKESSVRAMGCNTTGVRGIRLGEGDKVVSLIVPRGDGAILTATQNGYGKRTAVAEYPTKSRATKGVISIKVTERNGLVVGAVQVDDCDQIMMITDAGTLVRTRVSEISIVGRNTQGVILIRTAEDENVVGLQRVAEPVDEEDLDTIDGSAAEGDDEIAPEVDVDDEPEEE
Chain of Escherichia coli DNA gyrase (subunit A and subunit B) (Escherichia coli) (P0AES4 2-875 limits assumed): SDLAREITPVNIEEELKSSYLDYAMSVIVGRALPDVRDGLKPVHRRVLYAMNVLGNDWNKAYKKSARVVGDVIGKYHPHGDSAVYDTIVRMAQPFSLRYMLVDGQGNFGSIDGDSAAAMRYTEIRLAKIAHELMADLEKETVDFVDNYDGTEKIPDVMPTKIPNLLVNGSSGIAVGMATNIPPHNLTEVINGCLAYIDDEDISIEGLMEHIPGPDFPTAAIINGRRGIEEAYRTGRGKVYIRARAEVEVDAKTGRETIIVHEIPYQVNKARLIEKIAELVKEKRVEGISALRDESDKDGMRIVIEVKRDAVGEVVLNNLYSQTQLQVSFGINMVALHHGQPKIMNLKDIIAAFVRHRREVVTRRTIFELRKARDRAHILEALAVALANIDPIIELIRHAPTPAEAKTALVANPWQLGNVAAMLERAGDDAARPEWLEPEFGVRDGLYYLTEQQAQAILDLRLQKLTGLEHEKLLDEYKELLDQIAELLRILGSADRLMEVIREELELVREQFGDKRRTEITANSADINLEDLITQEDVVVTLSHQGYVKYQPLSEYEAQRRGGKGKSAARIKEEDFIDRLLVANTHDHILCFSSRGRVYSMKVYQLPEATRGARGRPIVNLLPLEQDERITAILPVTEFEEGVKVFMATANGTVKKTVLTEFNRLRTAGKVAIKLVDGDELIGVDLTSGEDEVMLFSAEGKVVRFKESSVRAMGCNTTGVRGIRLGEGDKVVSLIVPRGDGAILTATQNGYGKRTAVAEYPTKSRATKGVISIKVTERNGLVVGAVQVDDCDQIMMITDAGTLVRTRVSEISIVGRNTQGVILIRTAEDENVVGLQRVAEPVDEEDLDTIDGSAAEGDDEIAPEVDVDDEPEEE

Molecule: DNA gyrase-inhibiting protein (DGI) derived from Escherichia coli (from UniProt B2TYH1 1-157)
- supercoiling activity of DNA gyrase (relaxed pBR322 DNA, agarose gel) [1]: 8 µg/ml
- supercoiling activity of DNA gyrase (relaxed pBR322 DNA, agarose gel, densitometry) [1]: > 6 µg/ml

B1: dgi gene antisense RNA: antisense RNA expressed from pLEX carrying the dgi fragment (255th-728th bases of Sequence ID NO:6) (nucleic acid)
antisense: ATGAACTACGAGATTAAGCAGGAAGAGAAACGTACCGTTGCAGGTTTCCATCTCGTTGGCCCGTGGGAACAGACGGTAAAGAAAGGCTTTGAGCAGTTGATGATGTGGGTAGATAGCAAAAATATTGTGCCGAAGGAGTGGGTTGCTGTCTATTACGACAATCCAGATGAAACACCCGCCGAAAAATTACGCTGCGACACCGTCGTGACGGTGCCGGGTTACTTTACGCTTCCCGAAAACAGTGAGGGCGTCATTCTGACAGAAATTACAGGTGGTCAGTATGCGGTGGCGGTAGCTCGTGTAGTCGGTGATGATTTTGCTAAACCCTGGTATCAGTTCTTTAATAGTCTCTTGCAGGACAGTGCTTATGAAATGTTACCAAAGCCCTGCTTCGAGGTTTATTTGAACAATGGCGCGGAAGATGGGTACTGGGATATCGAAATGTATGTTGCGGTGCAGCCAAAACATCACTAA
modifications: antisense orientation RNA; Escherichia coli strain KL16
- morphology of bacteria (E. coli GI724 strain; antisense RNA-expressing strain): elongation of the bacteria was observed
- turbidity OD600 (E. coli GI724 strain; 8 hours after the addition): 0.4
- number of living cells (E. coli GI724 strain; 8 hours after the addition (from 4×10^7 cfu/ml)): 1×10^8 cfu/ml
- number of living cells (E. coli GI724 strain; after 24 hours): 5×10^6 cfu/ml
- turbidity OD600 (E. coli GI724 strain; after 24 hours): ~0.5

B2: DGI: about 18 kDa Escherichia coli protein inhibiting DNA gyrase supercoiling activity, Sequence ID NO:7 (protein)
chain: MNYEIKQEEKRTVAGFHLVGPWEQTVKKGFEQLMMWVDSKNIVPKEWVAVYYDNPDETPAEKLRCDTVVTVPGYFTLPENSEGVILTEITGGQYAVAVARVVGDDFAKPWYQFFNSLLQDSAYEMLPKPCFEVYLNNGAEDGYWDIEMYVAVQPKHH
modifications: Escherichia coli strain KL16
- concentration perfectly inhibiting the supercoiling activity of DNA gyrase ([2]; purified DGI isolated from Fraction No. 32 by Sephadex G-75, relaxed pBR322 DNA, subunit A 1 U, subunit B 1 U): 8 µg/mL
- concentration completely inhibiting the supercoiling activity of DNA gyrase ([2]; recombinant purified DGI of Example 4, 1 hour at 37° C., tested 25 to 0.39 μg/ml): ≥ 6 µg/mL
- conversion to supercoiled DNA at concentration lower than 6 μg/ml ([2]; recombinant purified DGI of Example 4, below 6 μg/ml): ended in an incomplete state
- morphology of strains expressing a large amount of DGI [3]: lank and elongated
